Measurements from publication PMC7382273, “Rubisco accumulation factor 1 (Raf1) plays essential roles in mediating Rubisco assembly and carboxysome biogenesis” (Proceedings of the National Academy of Sciences of the …, 2020).

B1: Rubisco accumulation factor 1 (Raf1) (Synechococcus elongatus PCC7942), recombinant (natural protein, UniProt Q31Q05 1-356, looked up)
chain: MREFTPTTLSEEERQELLGQLRRKEGRWLAWARACQTLLKNGLNPQTLFEATGFEPIQQNQITVAMQVYDSILRQDPPAHVRETYQEWGSDLLYELRELDQEQRSLCAQLALERKLDADQIREVAKATKDFCRLPKQPENFDRHPGDAVAHQCWRLAQERTDLTERSRLIARGLQFAQSAGARALIEALLLDLSGVPSRKPPMLPIYRLETEEDLPRLLPFAGTLPLSSSQIEAIAAVEAEGPFGLVSSPQGQQWLALPGWQAILTAEDPIACLEQIDRLPNAPEGPTEAVVLVVDRADRDWDADHFFLVEQAEGARIQWSPSAIAAPILGRLVLILRPKRVLDEAAIATPWQFEE
notes: Raf1, Rubisco accumulation (assembly) factor 1, Synechococcus elongatus PCC7942, gene synpcc7942_0833 amplified from genomic DNA; N-terminal α-helical domain (Raf1α), flexible linker, C-terminal β-sheet dimerization domain (Raf1β); Only the Raf1α domains are modelled in PDB 6SMH; Raf1β could not be resolved; Four Raf1 dimers (eight chains) sit on one RbcL8 core; also called Rubisco assembly …
B2: Rubisco large subunit RbcL (Synechococcus elongatus PCC7942), recombinant, in the RbcL-Raf1 supercomplex (natural protein, UniProt Q31NB3 1-472, looked up)
chain: MPKTQSAAGYKAGVKDYKLTYYTPDYTPKDTDLLAAFRFSPQPGVPADEAGAAIAAESSTGTWTTVWTDLLTDMDRYKGKCYHIEPVQGEENSYFAFIAYPLDLFEEGSVTNILTSIVGNVFGFKAIRSLRLEDIRFPVALVKTFQGPPHGIQVERDLLNKYGRPMLGCTIKPKLGLSAKNYGRAVYECLRGGLDFTKDDENINSQPFQRWRDRFLFVADAIHKSQAETGEIKGHYLNVTAPTCEEMMKRAEFAKELGMPIIMHDFLTAGFTANTTLAKWCRDNGVLLHIHRAMHAVIDRQRNHGIHFRVLAKCLRLSGGDHLHSGTVVGKLEGDKASTLGFVDLMREDHIEADRSRGVFFTQDWASMPGVLPVASGGIHVWHMPALVEIFGDDSVLQFGGGTLGHPWGNAPGATANRVALEACVQARNEGRDLYREGGDILREAGKWSPELAAALDLWKEIKFEFETMDKL
notes: RbcL, large subunit of ribulose-1,5-bisphosphate carboxylase/oxygenase, Synechococcus elongatus PCC7942, gene synpcc7942_1426 amplified from genomic DNA; The complex was captured on Ni-IMAC as a 'His-fusion complex'; also called RbcL8; RbcL8 core; source: E. coli BL21 DE3, co-expressed with Raf1 (pET19b-RbcL-Raf1) and GroES/EL, purified as a complex (Ni-IMAC, Superdex 200)

Biological target: the molecule itself
Assay: cryo-EM structure; RbcL-Raf1 supercomplex co-expressed with GroES/EL in E. coli, purified by Ni-IMAC and Superdex 200; 1.2 mg/mL on Quantifoil grids; 200 kV Tecnai F20; 16,022 particles; 4.28 Å

Protein | stoichiometry N
B1 | 2
B2 | 8
